Experiment: label from the status in PepcDB records

Sequence | protein production
MTHRPMLNKIKLFFIVQIILSFLVLAGTLISILVIPSHLPDYFIWAIAFSFWVFQCGFSTIFAFRYRISKSSLSTIKLSFILIGSIQILITLATNLFGIFDLPIFNTLIIKNFQFLILSLIFIVMIYKLIKDMLKYRVLKDYIIRDSFFTFIPFAFIIYKNSKYFISSIYFLDDSVYSLALLNINSLRIFLEGFLIILIFVKTIYLRGNKKSSFLLLIYFYVSNLNCYIVSYFNSKLLFSHYLYQGIGIYFICPILLMLSIYHSITEQEKAPDQVLFDDSYMNINNSWISITIGIFPVSFSAIDIISSSIASGDFNGIESLVIILLVMILLVCRDVILRKDNLRLIASVKRANEIDFLTNMYSRNYFLKKLETINTDYALFFIDIKSFKDINNIFGHVVGDKVLVEVANKFKELKLLLGKNVFYCRYSGNEFALISKLDQVDLILKFFRDLENIKIQHNSDLIHINFNIGYSLNDSNINLDLLIQETDYALMRAKKLKGPNNSILMYDDNLKTDLEHMNILKKDFKNDLLTGKFHLVFQPKVCVKTLKIVGFETLLRWKHDKLGEISPSKFVPIAENLGEISSLDLYVFKKSCEFQRCLIDKGIKLKCSVNLSLNTLKSYEKINEILNIYKEYKIPKHLITAEILENVSLNNNAKTISYINLLRENGICISIDDFGTGYSSLSQISNLYFDELKIPREFVIDARTPSKLAVIEAISILAKKLKVTSVIEGVENYEDFKLFSSLGFDIVQGYYFSKPLTKSEIIDYIKVNINNKIS | failed
MTHSQQSMVDTFRASLFDNQDITVADQQIQALPYSTMYLRLNEGQRIFVVLGYIEQEQSKWLSQDNAMLVTHNGRLLKTVKLNNNLLEVTNSGQDPLRNALAIKDGSRWTRDILWSEDNHFRSATLSSTFSFAGLETLNIAGRNVLCNVWQEEVTSTRPEKQWQNTFWVDSATGQVRQSRQMLGAGVIPVEMTFLKPAPLEHHHHHH | not failed
MTHTRRALSTVGKGLAALRHLLPLLLCLLVLAGCAKAPYTGRSQFIMVSPQQEMALGQQESRKILSKEPVKTGTDEAQRVETVGRRIAAAARRGDFRWEFHLIGKDVANAFCLPGGKVFVYEGIFKYADTDAELATVMAHEVGHAIARHGAERMSRAMMVQMGHDAAAIALGVAGGSPAAVQAFSQAYGTGANVGLMLPFGREQEYEADRIGLMLMAQAGYDPRAALDFWRKMSSAPGKRPPEFLSTHPTGQHRIAELQARMGDALRVYRPPSGK | failed
MTHVNIMAGGPQACLPAAWEQLPGVWIGVDRGTLRLVRAGIHPELAVGDFDSLTLEELRLVRGHVQKLQQVPSEKDDTDTELAVKAALQASSSGDVTLVGGTGGRLDHFLSNLFLPLQPRFLADVERLHLFDVQNWVDYYSPGEHEIKPLPGYRYVAVVNLTPVADLTIVGAKYPLKPWRAGYPYAWASNEFLGKQPFTVSWTTGQVAIIYSRDRRGQKLDNLEHHHHHH | not failed
MTIAATMLRAITVLMALLLLVAAGPAAAADEGGDLLEQFLGRKYEPVLKPLEIPEGTPPSEALFLYLNQGYGDAGVIGDFLAKGADANYADKEYRITLLHNVAHYGHAEATRILLAAGARVNAVNGEGNTPLFAAVHEGHDDVARILLDAGADVTIANSYWYTPLREACRRGNTGMVRLLLEKGADVNITDNKGFTPLHAAVSAEALEAATLILDSGADINIAGRYGDTPLHYAVGLGYEEFVRLFLARGADPTIRNDRGLTPRQLAEERGFASIVELFRNWGKNTI | failed
MTIACPQCGATAEARTDTRFHGCAFCGSSFMVERGVGIAEYHLDHERDDRVAWSAVASTLERDGAGQAVERTGCEYLVAPFWLSRPESGGNRLVPALRHPWLQGPLPGLPGGDLLFVPSGDDFILPDIPADEALGEGADRGGTSLSLVYLPLYLLSFRLAGHDCRALVSAVDRRVALLTPLPARSESVPFRHAALVAGFAITLTASGLAVKSHFLRAAVFAAVLAVAWPVCTALLRRGE | failed
MTIAILSTGDEIIHGDTLNTNAHYIAHALCSEGLPLGLQVACSDKENEIIDSLNFLTQHHDILILIGGLGPTKDDITRFALAKFTKEPLLQHADALDHIEKKANIAKISLNQGNLQQCLFPANARLFPNPYGTAMGCSYSWKGKVFILLPGPPRECLPMFNQDVLPLLLQTSRHSNK | not failed
MTIHKKGQAHWEGDIKRGKGTVSTESGVLNQQPYGFNTRFEGEKGTNPEELIGAAHAACFSMALSLMLGEAGFTPTSIDTTADVSLDKVDAGFAITKIALKSEVAVPGIDASTFDGIIQKAKAGCPVSQVLKAEITLDYQLKS | not failed
MTIKSLLSDIEREERNVHKAIKDSVKRNDLVTAKALAREIVSSRRTVKRLYENKAQVNSISMHLGESIATAVTVGNLSKSGEVMKLVNSLMKAPEIAVTMQAFSKEMTKTGVIEEFVSDAVDNALDSEDIEEEIEEEVDKVLTAIAGETAAELPEAVRKQKMNVPAQKAETLHGEDAIVEGVDAEEELEAIRYRLANVRS | failed
MTIKTLQYDDFMLYRERIRDLLVQIYDINFDVSHDYSINESNKKINLLDEYIKTNQAVLIGAVDGEKLVGFIWIYKHEYFGETRMHINQIIVDKEYKRKGIGKRLLEEAEKKAKELGIKVIDLFVSEKNAEAVNFYEKTGFVTERRYLKKILLEHHHHHH | not failed
MTILDRLTGLAFPAAVLRRAIKLADSGKAAEAFPLMAKAARAGIVDAEYRVARCYLEGAGVPPSRMEGARWLLRAADHGSADAQALLAALYVTGLVTSEADGKGPSEHLFKPDSAGKPDFTAAFDFATKAAEAGSATGQAILGYILTSGPASMRDADAAHRWYEKSASAGCAEGCLGFALSLARRGKRENRVRIAEEVRRAADAGLPTATYLLAVLTEHGLGVARDMAAAAQLYQAAAEKGLPSAQFRLGLALIDGALVGQDVAAGEAWMRRAALAGNIEAAYLLGDRHAKTQRPDFAEAANWYRRAAEAGHQAAARALASLYLTGNGVAEDVEEGARWLRSSASAGNQQAQTDLANLILGGAGEPDDGASVAGWFEAAASSGDLIAAFNLGLCFAKGVGVRQDEGQAAHWLRRAAEGVAEAQYMYARLLQDGRGVAADPTQARVWFARAADAGVLDARVALAEMLLNGRGGMPEPEAAMQLFEQAAADGHAGAMFAIGALYGAGHGLPLDQTTAQKWYAAAAGRGHSQAQFMLGRYLLKGLAGERDPVAARLWLERAAAHGISEAADELGAAGGSD | failed
MTILTRYIAGAYLKILGLCLASFVAIYLVIDFLEKIGRLLRFQPRWIDIIQYFICKLPEIITQVIPLAVLMSTLLTLGMLSRNSEIVAMRGCGVGLGRISAPLIVIAAAVSLLTIFSNEFVLPSSYRQMRYVDQVLIRKQGTNTFFRQNNIWHKDESAIMMARVFDPGRQALRGITLWRFSDGMRPVSRIDAAEGTWDGARWTFKTVTVRGLAGPSVETRTLASLPAELNLKIEDLKVVDKYADNMGFFKLRDYVRKLKAGGYDTTRYEAQMHSKISLPFASLIMAFLGIPFALRGGRSSGVALGITASIGIGFAYFITNSILISFGQTGILPPLISAWAANVLFALSGIWLAMTLDR | failed
MTIPKLSPSPESYPESLTFAELGLNAALRKALPTRLKHPTRVQQLAIPAILAGRDLLALSQTGSGKTFAFGLPLLQILWQQIAVQTTAKSVPAAKPLALVLVPTRELALQVSEALHALASQLSTSAPLNIQLLCGGVALEQQLADLSAKPQLVVATPGRLLDLCTQSHISLDAIKHLVLDEADRLLEMGFWPDMQKLMAMMPKRKQTLLFSATLPEALDSLAGKLLTNDPLKVEASTRNAVVGEIEEQLYLVNKGSKAQALIALLKQYQWPQVLVFISARDDADAIAKRLVKAGINAAALHGEKDQTVRSQTLADFKADRIQVLVATDLMARGIHVDALPVVINLDLPTSAPVYVHRIGRTARAGAKGLAISLVCHGEMPNLTAIRNLTARALPLVFLADFPVTDKPSEKIIDGAENKVIPKRPPRDKQANRRSINKHSVKAFKGKR | failed
MTISNKTLTAAAAGLAAVLAVLLVPALAGQSAHTGHTMPAHTPPAQTAPAAQKAGAQALPVTVQGATVAAVPPSIRDTAAYMTLTNKSDQPIKLVGAATPLATSPMLMTTTHSGGMAGMKMVPWLTIPARGTLTLQRDGDHVMLMGLKRPLKVGETVNITLKATDGRTLNVAATVKKN | not failed
MTISQNRNGDDVAVHKFGLFVAKHRKLVLAIAILLLIPSIYGFVTTKVNYDILTYLPKDLESVKGQDILDKEFKQAALSMLIVKGDMNISNIQKLKSKISQVDGVEKVIWIDDFLDPTIPKEMLPDVLKNTFYSKDSTLLLIQFKNSASSLETQNAISKIRKIATAQCFLSGMSAIIKDTRDLSDRETPLYVLVAVVFIFILLLLTMESPIVPILFLTSIGMAIIYNLGTNKFLGEISYITKSLAAVLQLGVTMDFSIFLMHRYDEERKRFDSKEEAMAEAISKTLVAILSSAATAIAGFLALCVMRLRIGADIGIVMAKGVFLGVIGTVTILPALILTFDRAIHKFRLKNILPTFSKTAEFATKYHVVLFVVFLLAFIPAIYGRVNIKEYYNLIDSLPKTIKSVQATDLLKKEYNMTTTHMVLVDRSVPKYQIKNMCEEIKRVKGVEKVLAFDDILGPAIPDEFIPSSVKENFEKGNFKLIMINSIYKSATSEENAQIERIQQIVKKYSKRSYVTGEGVLTKDLVEMADTDLKRVDFISILAIFMIILITFKSISIPLILVLAIELAIFINLAIPYYTNVTVPFIASIVLGTIQLGSAINYAILMTTRFREEIQKGHDRFEAIKIAVKTSSRSVVTSALAFAFSTLAVALIAKIDMIRSLCEMLSRGAVISMIVILFVLPSLLLLFEGAIAKTTFGWRSKEASVKPSEEYETL | failed
MTISRNYDQEIKDTAGHKYAYNFDFDVMHPFMVRAFTPFFRPGNLLELGSFKGDFTSRLQEHFNDITCVEASEEAISHAQGRLKDGITYIHSRFEDAQLPRRYDNIVLTHVLEHIDDPVALLKRINDDWLAEGGRLFLVCPNANAVSRQIAVKMGIISHNSAVTEAEFAHGHRCTYALDTLERDASRAGLQVTYRSGIFFKALANFQWDQILQTDILSKEYLDGCYQLGQQYPDLCASIFLLCEKGINQ | not failed
MTITDKNRLTGEADPRRTSLYGPPSMDALTERALHLARAGRALLGIVGEPGAGKSTFAEQLRARLEKERPGLAVTVSMDGFHLAQKVIEARGQAADKGTIDTFDADGFVALLRRTRAETGDTENTESTVWWPEFDRDLEDPVAGSIEVAPHHRLVIVDGNFLLSAQEPWRQVKGLLDETWFLDALPEPRRERLTRRYISYGFTPEAARAKTLGVDEDTSALIRSTVSRADLVIGEARESGGVSDCLEHHHHHH | failed
MTKFNYKSSLYLFNTIFLISLTTLGTMVMIPFAVESKIPKKTSNSISPFCKVLSEKFSPFGAAPDLSVALGKAIAEGGNLNQPCDIFGEKWLPLNFLLSTDEELSQRLIQTGVNVNAKDGKGDTPLHYLGKSEKNARLLLSRGAKVNVGNQNGNTPLHNLFGQKTAYVIKLLIDRGAKVNARNQEQMTPLHFAANSGKADITELLISRGGDVNARSTQNWTPLHYGASNLEVAKKLIQAGADLTIQNREGAVIHSSSLEPAVLKLLLDRGVNVNLRNRQGQTPLHIHRFQPALVKLLLARKAQVNLRDAQGKTPLYDVNLEVARQLVAANADLNVQDNLGRTPLHQAVLEEQSFFGSELVTLFLSKNARVDLKDKQGKTALDLARQLNKTQIINLLERHMATKNSPGSGTSTTKATEQLQQFLKSKNWSAADQETRRLLSPQKDLFGLNAATIPLDLIQEIDRAWLVASDGRFGLSVQAKIWQKVIASHPNNSETAANTFRDRVGWKLKVARTENDFISSDWLNESELNYSLQAPVGHLPWAGVSDASVLSLAVPPPGEHCGSCTIDAMFLRDGRFYKYLPQLFARVKMALNMNVSRPKSLAIAKK | failed
